Data: patent US20240067729A1 (PALLEON PHARMACEUTICALS, published 2024)
Where two headings read alike, the source gives them in different places.

Legend:
[1] = target: T1, cynomolgus PD-L1, his tagged (cPD-L1-his) (cynomolgus (Macaca fascicularis), UniProt G7PSE7 19-238); assay: ELISA on cynomolgus PD-L1
T1 construct: also called cyPD-L1-His; Cyno PD-L1

[2] = target: T2, human PD-L1 Fc fusion (hPD-L1-Fc) (human, UniProt Q9NZQ7 19-238, limits assumed); assay: blocking ELISA: antibody titrated + biotin-hPD-1-Fc 1 ug/mL on coated hPD-L1-Fc
T2 construct: not shown: Fc part
T2 sequence (Q9NZQ7 19-238 limits assumed): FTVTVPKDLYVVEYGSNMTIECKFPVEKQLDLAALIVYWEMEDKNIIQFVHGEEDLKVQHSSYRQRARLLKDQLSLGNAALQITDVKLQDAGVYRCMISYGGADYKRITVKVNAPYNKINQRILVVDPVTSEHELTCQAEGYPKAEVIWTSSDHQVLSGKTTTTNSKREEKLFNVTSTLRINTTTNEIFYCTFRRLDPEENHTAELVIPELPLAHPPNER
Source text: The plate was developed with TMB and Stop buffer, the absorbance at 450 nm was read using SpectraMax plate reader. The A450 absorbance was normalized to the control that without antibody for the percentage values. The curve and IC₅₀ were generated using GraphPad Prism software.

[3] = target: T3, human PD-L1, his tagged (hPD-L1-his) (human, UniProt Q9NZQ7 19-238, limits assumed); assay: BLI (ForteBio Octet), mouse IgG on AMC sensor, hPD-L1-his analyte, 1:1 fit
T3 construct: also called huPD-L1-His; recombinant human PD-L1; not shown: his tag
T3 sequence (Q9NZQ7 19-238 limits assumed): as above
Experimental: (§1) Screening of purified hybridoma antibodies. ForteBio octet binding of purified antibodies to recombinant hPD-L1-his and cPD-L1-his was measured. Mouse IgGs purified from hybridoma supernatant were captured on AMC (Anti-mouse IgG-Capture) Biosensor. hPD-L1-his or cPD-L1-his analytes were titrated from 100 nM in a 2× series dilution. The signal was subtracted with buffer reference and aligned to the baseline. KD, Kon and Koff values were generated using a 1:1 fitting model. […] The X-axes represent assay time in seconds, and the Y-axes represent binding signal on the biosensor. Each line represents the real time signal of antigen association and dissociation at the given antigen concentration in the assay (e.g., the top line represents the signal of the highest antigen concentration in the assay, the second top line represents the second highest concentration in the assay). The vertical dashed line represents the time point that the assay was moved from association step to the dissociation step. All the ForteBio/Octet assays were using standard/conventional settings and the graphs provided in the figures will be understood by one of skill in the art.

[4] = target: T1, cynomolgus PD-L1, his tagged …; assay: BLI (ForteBio Octet), mouse IgG on AMC sensor, cPD-L1-his analyte, 1:1 fit
Experimental: as §1

[5] = target: T1, cynomolgus PD-L1, his tagged …; assay: BLI (ForteBio Octet), cPD-L1-his
Experimental: (§2) Characterization of chimeric anti-PD-L1 antibodies. ForteBio octet binding of purified chimeric antibodies and recombinant hPD-L1-his and cPD-L1-his was measured. Chimeric human antibodies were captured on AHC (Anti-human IgG-Capture) Biosensor, hPD-L1-his or cPD-L1-his analytes were titrated from 100 nM in a 2× series dilution. The buffer reference was subtracted from the signal and aligned to the baseline. KD, Kon and Koff values were generated using 1:1 fitting model as described above. […]

[6] = target: T3, human PD-L1, his tagged (hPD-L1-his); assay: BLI (ForteBio Octet), hPD-L1-his
Experimental: as §2

[7] = target: T3, human PD-L1, his tagged (hPD-L1-his); assay: BLI (ForteBio Octet), hPD-L1-his; remark: listed apart in the source
Experimental: Characterization of chimeric anti-PD-L1 antibodies. ForteBio octet binding of purified chimeric antibodies and recombinant hPD-L1-his and cPD-L1-his was measured. Chimeric human antibodies were captured on AHC (Anti-human IgG-Capture) Biosensor, hPD-L1-his or cPD-L1-his analytes were titrated from 100 nM in a 2× series dilution. The buffer reference was subtracted from the signal and aligned to the baseline. KD, Kon and Koff values were generated using 1:1 fitting model as described above.
Selected h769 antibodies were tested in the blocking ELISA as described in Example 3 herein. […] Selected h769 humanized PD-L1 antibodies were characterized following removal of the deamidation motif in CDR-L3. FIG. 25 depicts the ForteBio octet binding of purified humanized antibodies and recombinant hPD-L1-his was measured.

T1 sequence (G7PSE7 entry or part of it limits assumed, form in doubt): as the sequence (Q9NZQ7 19-238 limits assumed) above, with A33T, A34S, S62N, R68Q, Q82R, F173L, T185A, T192I, H215L counted along it

ELISA cyno, Fold over Bkg [1] [fold over background] | IC50 [2] [nM] | Kd [3] [nM] | Kd [4] [nM] | further results | Binder
18.4 | 2.53 | 0.789 | 4.03 |  | PAL752 (hybridoma 4G6.H4) (antibody, V domains shown, Mouse IgG purified from hybridoma supernatant) VH: EVQLQESGAELARPGASVKLSCKASGHAFTSDSINWVKQRIGQGLEWIGEIYPRSGNPYYNEKFKGKATLTADKSSSTAYMELRSLTSEDSAVYFCATDYYGRYFDVWGTGTTVTVSS VL: DIQMTQSSFSFSVSLGDRVTIICKASEDIYNRLAWYQQKPGNTPRLLISGATSLETGVPSRFSGSGSGKDYTLSITSLQTEDVATYYCQQYWSTPWTFGGGTKLEIK
 |  | 0.592 | 1.15 |  | PAL771 (hybridoma 2D10.E2.B9) (antibody, V domains shown, Mouse IgG purified from hybridoma supernatant) VH: EVQLQESGAELVKPGASVKLSCTASGFNIKDTYMHWVKQRPEQGLEWIGRIDPANGNTKYDPKFPGKATITADTSSNTAYLQLSSLTSEDAAVYYCARPFNYRFYDVYYFDYWGQGTTLTVST VL: QIVLTQSPAIMSASPGEKVTMTCSASSSVSYMYWYQQKPGSSPRLLIYDTSNLASGVPLRFSGSGSGTSYSLTLSRMEAEDAATYYCQQWSTYPLTFGAGTKLELK
 |  |  | 2.27 |  | PAL771.2 (hybridoma 2D10.E2.H4) (antibody, V domains shown) VH: EVQLQESGAELVKPGASVKLSCTASGFNIKDTYMHWVKQRPEQGLEWIGRIDPANGNTKYDPKFPGKATITADTSSNTAYLQLSSLTSEDAAVYYCARPFNYRFYDVYYFDYWGQGTTLTVST VL: QIVLTQSPAIMSASPGEKVTMTCSASSSVSYMYWYQQKPGSSPRLLIYDTSNLASGVPLRFSGSGSGTSYSLTLSRMEAEDAATYYCQQWSTYPLTFGAGTKLELK
38.2 | 4.07 | 0.277 | 0.283 |  | PAL787(3D10) (hybridoma CKH-3D10) (antibody, V domains shown, Mouse IgG purified from hybridoma supernatant) VH: QVTLKESGPGILQPSQTLSLTCSFSGFSLSTYGLGVGWIRQPSGKGLEWLANIWWNDDKFYDSVLKSRLTISKDTSNNQVFLKISSVDTSETATYYCAQTLHYYDGIAWFAYWGQGTLVTVSA VL: DIVMTQSQNFMSTSVGDRVSVTCKASHYVGTFVAWYQQKPGQSPKALIFSTSYRHTGVPDRFTGSGSGTDFTLTISNVQSEDLADYFCQQYYNSPLTFGAGTKLELK
36.9 | 0.81 | 0.803 | 0.0577 |  | PAL767 (hybridoma 1G7.A8) (antibody, V domains shown, Mouse IgG purified from hybridoma supernatant) VH: EVQLQESGPSLVKPSQTLSLTCSVTGDSITSGYWNWIRKFPGNKLEYMGYISYTGSTYYNPSLKRRISITRDTSKNQYYLQLNSVTTEDTATYYCASQGGWLQAMDYWGQGTSVTVSS VL: not shown
 |  |  |  | Kd [5]: 2.92 nM; koff [5]: 0.000602 s⁻¹; kon [5]: 208000 M⁻¹ s⁻¹; Kd [6]: 2.64 nM; koff [6]: 0.000871 s⁻¹; kon [6]: 330000 M⁻¹ s⁻¹ | h769-IF3 (humanized 769-hIgG1 variant) (antibody, V domains shown) VH: EVQLVQSGAEVKKPGATVKISCKVSGFNIKDTYMHWVQQAPGKGLEWMGLIDPANDNTIYAEKFQGRVTITADTSTDTAYMELSSLRSEDTAVYYCAREGYGGSYGEGYWGQGTLVTVSS VL: EIVMTQSPPTLSLSPGERVTLSCRASQSVSNDLSWYQQKPGQAPRLLIYYASIRFTGIPARFSGSGSGTDFTLTISSLQPEDFAVYYCQQDYNSPWTFGQGTKVEIK
 |  |  |  | koff [7]: 0.00058 s⁻¹; kon [7]: 292000 M⁻¹ s⁻¹ | h769-N93 (humanized 769-hIgG1 variant keeping N93 in CDR-L3) (antibody, V domains shown) VH: EVQLVQSGAEVKKPGATVKISCKVSGFNIKDTYMHWVQQAPGKGLEWMGLIDPANDNTIYAEKFQGRVTITADTSTDTAYMELSSLRSEDTAVYYCAREGYGGSYGEGYWGQGTLVTVSS VL: EIVMTQSPPTLSLSPGERVTLSCRASQSVSNDLSWYQQKPGQAPRLLIYYASIRFTGIPARFSGSGSGTDFTLTISSLQPEDFAVYYCQQDYNSPWTFGQGTKVEIK
 |  |  |  | Kd [5]: 3.11 nM; koff [5]: 0.00065 s⁻¹; kon [5]: 211000 M⁻¹ s⁻¹; Kd [6]: 2.95 nM; koff [6]: 0.000904 s⁻¹; kon [6]: 311000 M⁻¹ s⁻¹ | h769-tm3 (humanized 769-hIgG1 variant) (antibody, V domains shown) VH: EVQLVQSGAEVKKPGATVKISCKVSGFNIKDTYMHWVQQAPGKGLEWMGLIDPANDNTIYAEKFQGRVTITADTSTDTAYMELSSLRSEDTAVYYCAREGYGGSYGEGYWGQGTLVTVSS VL: EIVMTQSPPTLSLSPGERVTLSCRASQSVSNDLSWYQQKPGQAPRLLIYYASIRFTGIPARFSGSGSGTDFTLTISSLQPEDFAVYFCQQDYNSPWTFGQGTKVEIK
 |  |  |  | Kd [7]: 1.46 nM; koff [7]: 0.000414 s⁻¹; kon [7]: 284000 M⁻¹ s⁻¹ | h769-N93A (humanized 769-hIgG1 variant, N93A in CDR-L3) (antibody, V domains shown, Human IgG1) VH: EVQLVQSGAEVKKPGATVKISCKVSGFNIKDTYMHWVQQAPGKGLEWMGLIDPANDNTIYAEKFQGRVTITADTSTDTAYMELSSLRSEDTAVYYCAREGYGGSYGEGYWGQGTLVTVSS VL: EIVMTQSPPTLSLSPGERVTLSCRASQSVSNDLSWYQQKPGQAPRLLIYYASIRFTGIPARFSGSGSGTDFTLTISSLQPEDFAVYYCQQDYASPWTFGQGTKVEIK
 |  |  |  | Kd [5]: 3.01 nM; koff [5]: 0.000593 s⁻¹; kon [5]: 204000 M⁻¹ s⁻¹; Kd [6]: 2.48 nM; koff [6]: 0.000818 s⁻¹; kon [6]: 331000 M⁻¹ s⁻¹ | h769-tm2 (humanized 769-hIgG1 variant) (antibody, V domains shown) VH: EVQLVQSGAEVKKPGATVKISCKVSGFNIKDTYMHWVQQAPGKGLEWMGLIDPANDNTIYAEKFQGRVTITADTSTDTAYMELSSLRSEDTAVYYCAREGYGGSYGEGYWGQGTLVTVSS VL: EIVMTQSPPTLSLSPGERVTLSCRASQSVSNDLSWYQQKPGQAPRLLIYYASIRFTGIPARFSGSGYGTDFTLTISSLQPEDFAVYYCQQDYNSPWTFGQGTKVEIK
39.5 | 0.51 | 0.758 | 1.3 |  | PAL769 (hybridoma 2C1.C8) (antibody, V domains shown, Mouse IgG purified from hybridoma supernatant) VH: EVQLQESGAELVKPGASVTLSCTASGFNIKDTYMHWVKQRPEQGLEWIGRIDPANDNTKYDPKFQDKATITADTSSDTAYLRLSSLTSEDTAVYYCAREGYGGSYGEGYWGQGTTLTVSS VL: SIVMTQTPKFLLVSAGDRVTITCKASQSVSNDVIWYQQKPGQSPKLLIYYASIRFTGVPDRFAGSGYGTDFTFTINTVQAEDLAVYFCQQDYNSPWTFGGGTKLEIK
4.98 | 0.68 | 1.02 | 0.642 |  | PAL785 (hybridoma 16G1.A5) (antibody, V domains shown, Mouse IgG purified from hybridoma supernatant) VH: EVQLQESGPELVKPGTSVKMSCKASGYTFTSYVMHWVKQRPGQGLEWIGYINPYNDGSKYNEKFKGKATLTSDTSSSTAYMELSSLTSEDSAVYYCAKQTLDFWGQGTSVTVST VL: DIVLTQSPASLAVSLGQRATISCRASESVEFYGTTLMQWYQQKPGQPPKLLIYAASNVESGVPARFSGSGSGTDFSLNIHPVEEGDIGMYFCQQSRKVPYTFGGGTKLEIK
13.1 | 4.64 | 1.14 |  |  | PAL759 (hybridoma 13F1.B7) (antibody, V domains shown, Mouse IgG purified from hybridoma supernatant) VH: EVQLQESGAELVRPGASVKLSCKASGYSFTDYYINWVKQRPGQGLEWIARIYPGSGNTYYNEKFKGKATLTAEKSSITAYMQLSSLTSEDSAVYFCARSYYYGSSYLFDYWGQGTTLTVSS VL: DILLTQSPAILSVSPGERVSFSCRASQSIGTSIHWYQQRTNGSPRLLIKYASESISGIPSRFSGSGSGTDFTLSINSVESEDIGDYYCQQSNNWPFTFGSGTKLEIK
